Test results: EP0977036A1, “METHOD FOR ASSAYING AGALACTO-IgG AND ASSAY KITS, PO[…] LECTINS, AND DNAS ENCODING THE SAME” (SEIKAGAKU CORPORATION, priority 1996, dated 1998)

Biological target: agalacto-IgG (human IgG treated with streptococcal beta-galactosidase and sialidase, Preparation Example 1)
Experiment: sandwich ELISA of Example 3, agalacto-IgG 2.5 µg/ml, competitor GlcNAc 50 mM (a monosaccharide)

percent inhibition in the presence of 50 mM GlcNAc: 50%
Substance: Psathyrella velutina lectin (PVL), purified from Psathyrella velutina fruiting body
